Measured values: paper PMC6969021

Key:
[1] = target: firefly luciferase (FLuc), wild type (Photinus pyralis) [luciferase: P08659]
[2] = target: FLucNC-Atto532 (Photinus pyralis); experiment: AUC; sedimentation velocity, detection at 532 nm; GuHCl-denatured FLuc-Atto532 diluted to 200 nM in folding buffer with 3 µM DnaK, 1 µM DnaJ, 5 mM ATP

Chain of DnaJ (P08622 whole entry): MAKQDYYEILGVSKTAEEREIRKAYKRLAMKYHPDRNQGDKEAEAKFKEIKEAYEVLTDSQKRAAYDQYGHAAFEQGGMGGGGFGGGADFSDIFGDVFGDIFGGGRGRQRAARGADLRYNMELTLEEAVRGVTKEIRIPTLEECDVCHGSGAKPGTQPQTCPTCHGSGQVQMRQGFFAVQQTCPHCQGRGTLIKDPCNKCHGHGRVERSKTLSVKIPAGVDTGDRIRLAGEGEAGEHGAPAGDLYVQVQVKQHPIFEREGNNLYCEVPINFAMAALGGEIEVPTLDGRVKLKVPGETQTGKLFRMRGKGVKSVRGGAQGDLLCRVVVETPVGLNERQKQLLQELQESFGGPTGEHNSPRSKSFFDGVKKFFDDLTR
Chain of DnaK (P0A6Y8 whole entry): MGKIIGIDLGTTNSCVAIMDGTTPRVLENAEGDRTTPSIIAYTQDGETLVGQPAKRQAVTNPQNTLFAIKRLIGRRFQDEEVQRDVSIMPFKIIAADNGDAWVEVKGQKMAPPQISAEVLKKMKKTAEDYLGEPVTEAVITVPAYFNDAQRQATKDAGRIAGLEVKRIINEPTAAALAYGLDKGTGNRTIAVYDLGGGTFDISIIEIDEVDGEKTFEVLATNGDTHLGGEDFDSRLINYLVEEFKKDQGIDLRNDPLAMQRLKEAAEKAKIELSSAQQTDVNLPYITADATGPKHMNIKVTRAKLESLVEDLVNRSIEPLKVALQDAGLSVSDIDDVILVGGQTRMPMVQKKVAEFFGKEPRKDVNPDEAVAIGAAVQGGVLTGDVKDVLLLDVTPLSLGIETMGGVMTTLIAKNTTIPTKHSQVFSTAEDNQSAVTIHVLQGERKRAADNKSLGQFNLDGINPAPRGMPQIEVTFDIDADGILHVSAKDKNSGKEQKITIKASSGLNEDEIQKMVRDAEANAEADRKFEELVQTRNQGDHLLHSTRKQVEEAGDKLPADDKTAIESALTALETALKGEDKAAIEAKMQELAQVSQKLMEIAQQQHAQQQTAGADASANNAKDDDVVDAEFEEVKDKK

Substance	yield of luminescence refolding of FLuc in the presence of KJE without ATP [1] [%]	stoichiometry N (DnaK per FLuc) [2]
DnaJ (from UniProt P08622 1-376) (natural protein)	40	–
DnaK (from UniProt P0A6Y8 1-638) (natural protein)	–	12
